According to paper PMC7720844:

How the values were obtained:
[1] = target: USP5 (UniProt P45974); test: anti-myc co-IP, immunoblot; conditions: reference: wild type
[2] = target: WTAP (UniProt Q15007); test: co-IP, immunoblot; conditions: reference: wild type; sites S43,S50,S525

METTL3 (from UniProt Q86U44) S50A
binding against the reference ([1]; sites S50): weaker

METTL3 (from UniProt Q86U44) 3A (S43A/S50A/S525A)
binding against the reference [2]: weaker

METTL3 (from UniProt Q86U44) S525A
binding against the reference ([1]; sites S525): weaker

METTL3 (from UniProt Q86U44) S43A
binding against the reference ([1]; sites S43): weaker
